“Also recorded” adds a separate entry of the source.
Experiments:
K562 cells = test: Proliferation/viability of transfected K562 cells (trypan blue exclusion); assay type: cell-based, human; conditions: for proliferation/viability of K562 cells: trypan blue exclusion
Experimental: K562 cells, human leukemia Bcr-Abl^+ cells (gifted from Kojo Elenitoba-Johnson, University of Michigan), were grown in RPMI 1640 media supplemented with 10% FBS, 1% penicillin-streptomycin-glutamine, and 0.1% gentamicin (complete medium). […] Transfections were carried out two days following cell passaging. Then, 2.0×10^6 cells were collected and transfected with 6 μg pf pEGFP, pEGFP-CC^mut3, pmCherry, or pmCherry-CC^mut3 according to the Cell Line Nucleofector Kit V protocol, program T-013, using the Amaxa Nucleofector II (Lonza Group, Basel, Switzerland).
Cell counts were performed using a standard light microscope.
Two days following cell passaging, 2.0×10^6 cells were collected by centrifugation at 500×g for 10 min for each transfection group. Following cell collection, 6 lig DNA (pEGFP, pEGFP-CC, pEGFP-CCmut3, pEGFP-Helix2WT, pEGFP-Helix2mut3, pmCherry, pmCherry-CCmut3, or pmCherry-CappedHelix2mut3) was transfected into cells according to the Cell Line Nucleofector® Kit V protocol (program T-013) using the Amaxa Nucleofector II (Lonza Group, Basel, Switzerland). Following transfection, the DNA/cell mixture was added to 10 mL Complete RPMI 1640 media and allowed to incubate at 37° C. for 24, 48, or 72 h until analysis, depending on the assay.
Forty-eight or 72 h following transfection, 100 μL of treated K562 or Ba/F3-p210 cells was mixed with 100 μL trypan blue solution (Life Technologies). The numbers of viable cells (those impermeable to the trypan blue dye) from four different quadrants in an INCYTO™ C-CHIP™ Neubauer hemacytometer (VWR International, Radnor, Pa., USA) were counted using a standard light microscope. Quadrant counts were then averaged to obtain the number of viable cells per mL. For experiments using the Helix2mut3 construct, counts were performed on one aliquot per transfection (n=3 in replicate). In experiments involving the CappedHelix2mut3 construct, counts were performed three times using separate 100 pt aliquots from one transfection (n=1 in triplicate).

[1] = system: Ba/F3 cells expressing native BCR-ABL1; test: Proliferation of transfected Ba/F3 cells with native p210 BCR-ABL1 (MTS assay); assay type: cell-based, mouse; conditions: CCmut3 vs EV; for reduction of proliferation: 96 h
Experimental: Stable recombinant Ba/F3 cells transduced with wild type p210 BCR-ABL1 (Daley, G. Q., et al. (1991) Proc. Natl. Acad. Sci. U.S.A. 88, 11335-11338), the kinase domain mutants p210^T315I p210^[…], or the compound mutant p210^E255V/T315I were as previously described (La Rosee, P., et al. (2002) Cancer Res. 62, 7149-7153; O'Hare, T., et al. (2004) Blood 104, 2532-2539). These cells were cultured in RPMI with 10% FBS, 1% penicillin, streptomycin, glutamine, and 0.1% gentamycin (RPMI1640). Additionally 0.1% MycoZap™ (Lonza Bio, Basel, Switzerland) was added to prevent mycoplasma contamination. The non-transduced parental Ba/F3 cell line was grown in RPMI1640 supplemented with 20% WEHI-3B conditioned medium as a source of murine IL-3 (Dexter, T. M., et al. (1980) J. Exp. Med. 152, 1036-1047). Ba/F3 cells were transfected with plasmid DNA using the Amaxa nucleofection system (Lonza Bio), following the manufacturer's instructions. Cells were sorted on a BD FACSAria cytometer (BD Biosciences, San Jose, Calif.) for double-positive cells expressing mCherry and GFP then returned to RPMI1640 for subsequent experiments.
Cell proliferation was assessed using the CellTiter 96® AQueous One Solution Cell Proliferation Assay (MTS assay, Promega) according to manufacturer instructions. Briefly, 5,000 viable cells were added to a single well in 96-well plate in 100 μL RPMI1640. Three independent samples were seeded in duplicate for each time point. […] In some experiments, cell proliferation was assessed using a Neubauer chamber and trypan blue dye exclusion.
Stable Ba/F3 cells transduced with native (p210) BCR-ABL1, the kinase domain mutants BCR-ABL1T315I, BCR-ABL1E255V, or the compound mutant BCR-ABL1E255V/T315I were cultured. […]
Cell proliferation was assessed using a […] viability assay (MTS assay) utilizing CellTiter 96® AQueous One Solution Cell Proliferation Assay (Promega) according to manufacturer instructions. […] Cell growth was assessed by MTS assay at 72 and 96 h. […] In patient sample experiments, cell proliferation was assessed by trypan blue exclusion.

parental Ba/F3 cells = test: Annexin V/7-AAD apoptosis assay in transfected parental Ba/F3 cells; assay type: cell-based, mouse; conditions: 72 h, CCmut3 vs EV
Experimental: (§1) For analysis of apoptosis and cell death, cells were pelleted and resuspended in Annexin V-binding buffer (BD Biosciences), stained with anti-Annexin V-APC (BD Biosciences or Life Technologies) and 7-AAD (BD Biosciences or Life Technologies) and analyzed on a BD FACSCanto flow cytometer. In addition to the APC and 7-AAD channels, GFP- and mCherry-positive cells were also recorded.
as §1, with “apoptosis and necrotic cell death,” for “apoptosis and cell death,”, “anti-Annexin V-APC and 7-AAD” for “anti-Annexin V-APC (BD Biosciences or Life Technologies) and 7-AAD”

B1: CCmut3: modified Bcr-Abl coiled-coil domain (residues 1-72) with mutations C38A, K39E, S41R, L45D, E48R, Q60E (protein)
chain: MVDPVGFAEAWKAQFPDSEPPRMELRSVGDIEQELERAEARIRRDEQRVNQERFRMIYLETLLAKEKKSYDR
proliferation/viability of K562 cells (K562 cells; 48 h following transfection, vs EGFP control, n=3): statistically significant decrease in the proliferation of K562 cells
proliferation/viability of K562 cells (K562 cells; 72 h following transfection, vs mCherry control, n=1): potent inhibition of cell proliferation
inhibition of cell proliferation of K562 cells (K562 cells; transfected, vs EGFP and WT control (FIG. 9)): inhibits proliferation; also recorded: significantly greater inhibition
reduction of proliferation [1]: > 2 fold
reduction of proliferation ([1]; listed as CC^mut3): more than 2 fold
proliferation, in words [1]: significantly reduced proliferation at 96 h
apoptosis, in words (parental Ba/F3 cells): no effect on parental Ba/F3 cells; also recorded: no effect on the parental cell line
apoptosis, in words (parental Ba/F3 cells; listed as CC^mut3): not affected; also recorded: no effect on the parental cells

Source: patent publication US10494417B2, “Peptide inhibitors of BCR-ABL oligomerization” (University of Utah Research Foundation, priority 2014, dated 2019)
